T1: Thy-1-Fc wild type (UniProt P01831 20-131)
T1 construct: In the functional rows m1 stands for Thy-1 on the surface of CAD neuronal cells; also called Thy-1(RLD)-Fc; CD90; source: purified; obtained as previously reported (Schneider, 2000; Leyton et al., 2001)
T1 sequence (looked up): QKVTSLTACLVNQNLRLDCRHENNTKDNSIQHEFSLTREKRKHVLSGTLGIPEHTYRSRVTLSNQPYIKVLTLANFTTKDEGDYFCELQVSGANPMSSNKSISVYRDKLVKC

T2: Commercially purified human Syndecan (ectodomain)-4-Fc, P31431
T2 chain: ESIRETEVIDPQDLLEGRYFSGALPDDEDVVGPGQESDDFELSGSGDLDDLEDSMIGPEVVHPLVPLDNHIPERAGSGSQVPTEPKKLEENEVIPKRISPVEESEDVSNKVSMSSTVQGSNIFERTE


Legend:
[1] = target: Commercially purified human Syndecan (ectodomain)-4-Fc (UniProt P31431); experiment: optical tweezers (miniTweezers) force-ramp adhesion frequency assay; details: loading rate 10 pN/s; Hepes buffer (10 mM Hepes, pH 7.4) containing 100 mM NaCl and 1 mM MgCl2 at 25°C; parent: est. 0.79; read off a plot
Thy-1-Fc wild type = target: T1, Thy-1-Fc wild type; experiment: optical tweezers force spectroscopy (constant-force bond lifetime assay); miniTweezers; Thy-1-Fc on the 2.1 μm bead held by a micropipette; αVβ3-Fc, Syndecan-4-Fc or both on the 3.1 μm trapped bead (controls with TRAIL-R2-Fc added); constant forces 10, 20, 30, 40 and 50 pN; lifetimes fitted to the Bell model for values at zero force; 10 mM Hepes pH 7.4, 100 mM NaCl, 1 mM MgCl2, 25°C; details: both partners purified
[2] = target: T2, Commercially purified human Syndecan …; experiment: optical tweezers (miniTweezers) force-ramp adhesion frequency assay; details: chain shown with the change; loading rate 10 pN/s; Hepes buffer (10 mM Hepes, pH 7.4) containing 100 mM NaCl and 1 mM MgCl2 at 25°C; parent: est. 0.79; read off a plot

Row | Molecule | bond lifetime at zero force (τ0) (Thy-1-Fc wild type) | also measured
1 | Thy-1-Fc wild type (from UniProt P01831) AEAAA | – | other: adhesion frequency [1]: 0.4
2 | Commercially purified human Syndecan (ectodomain)-4-Fc (Fc fusion, UniProt P31431 19-145, looked up, Syndecan-4, human, ectodomain; Heparan sulfate proteoglycan; also called Syndecan-4-Fc; Synd-4-Fc) ESIRETEVIDPQDLLEGRYFSGALPDDEDVVGPGQESDDFELSGSGDLDDLEDSMIGPEVVHPLVPLDNHIPERAGSGSQVPTEPKKLEENEVIPKRISPVEESEDVSNKVSMSSTVQGSNIFERTE | 3.06 ± 0.22 s | –
3 | Recombinant αVβ3-Fc integrin (Fc fusion, integrin αV, ectodomain; integrin β3, ectodomain; Construct: Burgos-Bravo et al., 2018; also called αVβ3 integrin; source: HEK293T, transiently transfected, secreted into serum-free medium; purified as published (Burgos-Bravo et al., 2018) for optical tweezers; used as medium in the neurite retraction assay) chain 1: FNLDVDSPAEYSGPEGSYFGFAVDFFVPSASSRMFLLVGAPKANTTQPGIVEGGQVLKCDWSSTRRCQPIEFDATGNRDYAKDDPLEFKSHQWFGASVRSKQDKILACAPLYHWRTEMKQEREPVGTCFLQDGTKTVEYAPCRSQDIDADGQGFCQGGFSIDFTKADRVLLGGPGSFYWQGQLISDQVAEIVSKYDPNVYSIKYNNQLATRTAQAIFDDSYLGYSVAVGDFNGDGIDDFVSGVPRAARTLGMVYIYDGKNMSSLYNFTGEQMAAYFGFSVAATDINGDDYADVFIGAPLFMDRGSDGKLQEVGQVSVSLQRASGDFQTTKLNGFEVFARFGSAIAPLGDLDQDGFNDIAIAAPYGGEDKKGIVYIFNGRSTGLNAVPSQILEGQWAARSMPPSFGYSMKGATDIDKNGYPDLIVGAFGVDRAILYRARPVITVNAGLEVYPSILNQDNKTCSLPGTALKVSCFNVRFCLKADGKGVLPRKLNFQVELLLDKLKQKGAIRRALFLYSRSPSHSKNMTISRGGLMQCEELIAYLRDESEFRDKLTPITIFMEYRLDYRTAADTTGLQPILNQFTPANISRQAHILLDCGEDNVCKPKLEVSVDSDQKKIYIGDDNPLTLIVKAQNQGEGAYEAELIVSIPLQADFIGVVRNNEALARLSCAFKTENQTRQVVCDLGNPMKAGTQLLAGLRFSVHQQSEMDTSVKFDLQIQSSNLFDKVSPVVSHKVDLAVLAAVEIRGVSSPDHVFLPIPNWEHKENPETEEDVGPVVQHIYELRNNGPSSFSKAMLHLQWPYKYNNNTLLYILHYDIDGPMNCTSDMEINPLRIKISSLQTTEKNDTVAGQGERDHLITKRDLALSEGDIHTLGCGVAQCLKIVCQVGRLDRGKSAILYVKSLLWTETFMNKENQNHSYSLKSSASFNVIEFPYKNLPIEDITNSTLVTTNVTWGIQPAPMPV chain 2: GPNICTTRGVSSCQQCLAVSPMCAWCSDEALPLGSPRCDLKENLLKDNCAPESIEFPVSEARVLEDRPLSDKGSGDSSQVTQVSPQRIALRLRPDDSKNFSIQVRQVEDYPVDIYYLMDLSYSMKDDLWSIQNLGTKLATQMRKLTSNLRIGFGAFVDKPVSPYMYISPPEALENPCYDMKTTCLPMFGYKHVLTLTDQVTRFNEEVKKQSVSRNRDAPEGGFDAIMQATVCDEKIGWRNDASHLLVFTTDAKTHIALDGRLAGIVQPNDGQCHVGSDNHYSASTTMDYPSLGLMTEKLSQKNINLIFAVTENVVNLYQNYSELIPGTTVGVLSMDSSNVLQLIVDAYGKIRSKVELEVRDLPEELSLSFNATCLNNEVIPGLKSCMGLKIGDTVSFSIEAKVRGCPQEKEKSFTIKPVGFKDSLIVQVTFDCDCACQAQAEPNSHRCNNGNGTFECGVCRCGPGWLGSQCECSEEDYRPSQQDECSPREGQPVCSQRGECLCGQCVCHSSDFGKITGKYCECDDFSCVRYKGEMCSGHGQCSCGDCLCDSDWTGYYCNCTTRTDTCMSSNGLLCSGRGKCECGSCVCIQPGSYGDTCEKCPTCPDACTFKKECVECKKFDRGALHDENTCNRYCRDEIESVKELKDTGKDAVNCTYKNEDDCVVRFQYYEDSSGKSILYVVEEPECPKGPD | 6.79 ± 1.49 s | –
4 | αVβ3-Fc + Syndecan-4-Fc (both on one bead) (complex, integrin αV, ectodomain, as in m5; integrin β3, ectodomain, as in m5; Syndecan-4, human, ectodomain, as in m6; Not a complex formed beforehand: m5 and m6 were put together on bead 2 and met Thy-1-Fc on bead 1; also called αVβ3 integrin + Syndecan-4; source: αVβ3-Fc: HEK293T, purified; Syndecan-4-Fc: commercially purified; both attached to one protein G-coated bead; copies: + +) chain 1: FNLDVDSPAEYSGPEGSYFGFAVDFFVPSASSRMFLLVGAPKANTTQPGIVEGGQVLKCDWSSTRRCQPIEFDATGNRDYAKDDPLEFKSHQWFGASVRSKQDKILACAPLYHWRTEMKQEREPVGTCFLQDGTKTVEYAPCRSQDIDADGQGFCQGGFSIDFTKADRVLLGGPGSFYWQGQLISDQVAEIVSKYDPNVYSIKYNNQLATRTAQAIFDDSYLGYSVAVGDFNGDGIDDFVSGVPRAARTLGMVYIYDGKNMSSLYNFTGEQMAAYFGFSVAATDINGDDYADVFIGAPLFMDRGSDGKLQEVGQVSVSLQRASGDFQTTKLNGFEVFARFGSAIAPLGDLDQDGFNDIAIAAPYGGEDKKGIVYIFNGRSTGLNAVPSQILEGQWAARSMPPSFGYSMKGATDIDKNGYPDLIVGAFGVDRAILYRARPVITVNAGLEVYPSILNQDNKTCSLPGTALKVSCFNVRFCLKADGKGVLPRKLNFQVELLLDKLKQKGAIRRALFLYSRSPSHSKNMTISRGGLMQCEELIAYLRDESEFRDKLTPITIFMEYRLDYRTAADTTGLQPILNQFTPANISRQAHILLDCGEDNVCKPKLEVSVDSDQKKIYIGDDNPLTLIVKAQNQGEGAYEAELIVSIPLQADFIGVVRNNEALARLSCAFKTENQTRQVVCDLGNPMKAGTQLLAGLRFSVHQQSEMDTSVKFDLQIQSSNLFDKVSPVVSHKVDLAVLAAVEIRGVSSPDHVFLPIPNWEHKENPETEEDVGPVVQHIYELRNNGPSSFSKAMLHLQWPYKYNNNTLLYILHYDIDGPMNCTSDMEINPLRIKISSLQTTEKNDTVAGQGERDHLITKRDLALSEGDIHTLGCGVAQCLKIVCQVGRLDRGKSAILYVKSLLWTETFMNKENQNHSYSLKSSASFNVIEFPYKNLPIEDITNSTLVTTNVTWGIQPAPMPV chain 2: GPNICTTRGVSSCQQCLAVSPMCAWCSDEALPLGSPRCDLKENLLKDNCAPESIEFPVSEARVLEDRPLSDKGSGDSSQVTQVSPQRIALRLRPDDSKNFSIQVRQVEDYPVDIYYLMDLSYSMKDDLWSIQNLGTKLATQMRKLTSNLRIGFGAFVDKPVSPYMYISPPEALENPCYDMKTTCLPMFGYKHVLTLTDQVTRFNEEVKKQSVSRNRDAPEGGFDAIMQATVCDEKIGWRNDASHLLVFTTDAKTHIALDGRLAGIVQPNDGQCHVGSDNHYSASTTMDYPSLGLMTEKLSQKNINLIFAVTENVVNLYQNYSELIPGTTVGVLSMDSSNVLQLIVDAYGKIRSKVELEVRDLPEELSLSFNATCLNNEVIPGLKSCMGLKIGDTVSFSIEAKVRGCPQEKEKSFTIKPVGFKDSLIVQVTFDCDCACQAQAEPNSHRCNNGNGTFECGVCRCGPGWLGSQCECSEEDYRPSQQDECSPREGQPVCSQRGECLCGQCVCHSSDFGKITGKYCECDDFSCVRYKGEMCSGHGQCSCGDCLCDSDWTGYYCNCTTRTDTCMSSNGLLCSGRGKCECGSCVCIQPGSYGDTCEKCPTCPDACTFKKECVECKKFDRGALHDENTCNRYCRDEIESVKELKDTGKDAVNCTYKNEDDCVVRFQYYEDSSGKSILYVVEEPECPKGPD chain 3: ESIRETEVIDPQDLLEGRYFSGALPDDEDVVGPGQESDDFELSGSGDLDDLEDSMIGPEVVHPLVPLDNHIPERAGSGSQVPTEPKKLEENEVIPKRISPVEESEDVSNKVSMSSTVQGSNIFERTE | 11.6 ± 1.34 s | –
5 | Thy-1-Fc wild type, P01831 RLE (protein) QKVTSLTACLVNQNLRLECRHENNTKDNSIQHEFSLTREKRKHVLSGTLGIPEHTYRSRVTLSNQPYIKVLTLANFTTKDEGDYFCELQVSGANPMSSNKSISVYRDKLVKC | – | other: adhesion frequency [2]: 0.81
